Data published in article PMC5916938.
“And” between values parts separate entries of the source, which are not always exact repeats. Equal values may be shown once.

Molecular target: porcine brain tubulin (alpha/beta heterodimer), as paclitaxel-stabilised microtubule lattice (straight tubulin) or as curved tubulin protofilaments (porcine) (UniProt P02550)
Assay: cryo-EM 2D class averages; CTNM AMP-PNP: 15 uM KLP10A NM with 3 uM polymerized tubulin in BRB80, 5 mM AMPPNP, 5 mM MgCl2, 20 uM paclitaxel, 5 min at room temperature; ring-like curved tubulin complexes not wrapped around microtubules, aligned and classified in 2D
Settings: scale: KLP10A motor domain per tubulin heterodimer

Sequence of UniProt P02550 (P02550 whole entry, chain 1 of 2): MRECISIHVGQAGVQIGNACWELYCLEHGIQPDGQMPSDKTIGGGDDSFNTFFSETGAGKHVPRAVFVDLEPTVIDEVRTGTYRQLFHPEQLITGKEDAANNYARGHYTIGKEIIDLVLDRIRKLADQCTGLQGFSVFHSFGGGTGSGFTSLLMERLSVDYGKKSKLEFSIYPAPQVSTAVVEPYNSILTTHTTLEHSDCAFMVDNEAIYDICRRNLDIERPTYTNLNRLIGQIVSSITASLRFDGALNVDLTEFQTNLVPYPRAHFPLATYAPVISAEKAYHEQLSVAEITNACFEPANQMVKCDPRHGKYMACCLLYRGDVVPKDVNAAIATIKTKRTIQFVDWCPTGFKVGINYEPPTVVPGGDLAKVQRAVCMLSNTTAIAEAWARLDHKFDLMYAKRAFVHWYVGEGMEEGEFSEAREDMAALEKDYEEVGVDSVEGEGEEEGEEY
Sequence of UniProt P02550 (P02554 1-439, chain 2 of 2, further chain): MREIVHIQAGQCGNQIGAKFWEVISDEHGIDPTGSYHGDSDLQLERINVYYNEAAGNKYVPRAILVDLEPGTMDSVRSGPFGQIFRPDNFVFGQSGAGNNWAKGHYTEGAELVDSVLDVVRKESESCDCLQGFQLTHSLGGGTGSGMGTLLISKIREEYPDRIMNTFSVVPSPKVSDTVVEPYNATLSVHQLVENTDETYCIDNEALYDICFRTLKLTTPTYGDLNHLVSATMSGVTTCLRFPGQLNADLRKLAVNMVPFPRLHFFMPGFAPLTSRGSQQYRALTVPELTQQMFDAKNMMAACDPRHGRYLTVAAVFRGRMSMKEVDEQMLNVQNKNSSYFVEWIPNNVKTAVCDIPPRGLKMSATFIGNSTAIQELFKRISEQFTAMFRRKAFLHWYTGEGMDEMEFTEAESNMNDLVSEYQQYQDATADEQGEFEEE

**Q.** With “Drosophila melanogaster kinesin-13 KLP10A neck motor construct (NM), residues 198-615 (from UniProt Q960Z0 198-615) (domain or fragment)” as the substance, how does the stoichiometry N read?
**A.** Its stoichiometry N is 1 and 0.5.
